The supplement of paper PMC9170038

What follows are sequences tested on MS2 coat protein (assay: apparent KD of MS2 coat protein; higher = weaker reporter binding). Settings: Eterna round: R107; input ligand: theophylline 2 mM.
Outline: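 Designed RNA switches were transcribed on-chip from Illumina sequencing clusters. They were then titrated with SNAP-549-labelled MS2 coat protein (twofold steps, 0.7 or 1.5 nM to 3 µM; 0.8–1.5 h to 10–20 min per step) in 100 mM Tris-HCl pH 7.5, 80 mM KCl, 4 mM MgCl2, without or with constant ligand. Apparent KD is the per-design median of normalised cluster binding-curve fits.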

| Sequence | apparent KD of MS2 coat protein [µM] |
| --- | --- |
| AGGGAAUGAAUAGAAUGAGAUGACACAGAAGGAGCGCCGAUUAAGGCAGGUAGGUCGCUGACAACAUGAGGAUCACCCAUGUUAA [#11 Same State - Arginine A] | 0.0175 |
| UCGCGAUAGAGAAGGAGCGUCAACACCACAGAACAUGAGGAUCACCCAUGUGUUACUUUUAGACAGGUAGGUCGCUCUAGCGCUU [JR_Nu_ExcArginiB_Sub028] | 0.0164 |
| ACAUGAGGAUCACCCAUGUUAAACAGGGUGCGAGGACCGGUACGGCCGCCACUCGGACAUUAUUACGAGUGAAUGGUAACGAUGU [#13 Exclusion Tryptophan A] | 0.0265 |
| AUACAUGAGGAUCACCCAUGUCACACAGAAGGAGCGGCUGUAGAGCCAGGUAGGUCGCUGUACUCAAAAUACUUCAUACUCAUGU [JR_Nu_ExcArginiA_Sub033] | 0.037 |
| GCAUCCUAGUCGGCCGCCACUGGUACGAACACCUUCACCCGUGUGCACAUGAGGAUCACCCAUGUUAGGACCGGGACUAGGAUGC [SSTryp B #21] | 0.00845 |
| GUUAGUUACACGGCCGCCACUCUUUGGCUUGGCUCAAGCUCCCAACAUGAGGAUCACCCAUGUCAGAGGACCGGGUGAACAACGU [theeternabot_sameState_MS2_Trp_B_28] | 0.205 |
| UUCGUUUGCGGAAGGAGCGACGGACAUCGGUGAACGACGCACAUGAGGAUCACCCAUGUACGUCAGGUAGGUCGCCGCUAAGAGU [Tibira] | 0.0252 |
| UCACGACGCAACGUGAAAUAAUAAACAGAAGGAGCGAGGAAAGCCUCAGGUAGGUCGCUGACAUGAGGAUCACCCAUGUAUUACA [Same State Arginine A GF5] | 0.0351 |
| UUCUUUAAGUCGGCCGCCACUGAAACAUGAGGAUCACCCAUGUAUAUUUGUGUAUAGGUGGAUUACAGGACCGGGACUAUAGUAA [JR_ExcTryptoB_Sub023] | 0.0152 |
| AAAAUCCUACCUGAGGAUCACCCAGGUGAAGGAGCGCCCGAAAGGGCAGGUAGGUCGCACCUGAGGAUCACCCUGGUACCUAAAA [ArgAX 27 #DoubleMs2 #OpenEnded #AlternativeMS2] | 0.104 |

Same assay, conditions: Eterna round: R107; input ligand: tryptophan 2.4 mM

| Sequence | apparent KD of MS2 coat protein [µM] |
| --- | --- |
| UGUAUGGACUGAAGGAGCGGGAAAUAAACCUGAGGAACACCCAGGUAAUAGGCGAAAGCCACCCAGGUAGGUCGCAGUCCAUACU | 0.0188 |
| CCGGCCAGGGCGGCCGCCACUGAACGUGGAAGAAAGAAAACAUGAGGAUCACCCAUGUAAAUCCUCAGGACCGGGCCAGGGCCGG | 0.0178 |
| AUCCCGUGAGCGGCCGCCACUGGAGGCUUUGCGCGACAUGAGGAUCACCCAUGUGUGCCCGGCGUUAGGACCGGGUUCGCGUGGA [#1 Same State - Tryptophan B Attempt #17 (HarryS)] | 0.034 |
| GCUUAGAAACCUGAUACCAGUCAGCCCUAUGACAUGAGGAUCACCCAUGUGAUACUCACGGACCCUUGGCAGCAGGGUCGAUUAC [theeternabot_sameState_MS2_Theo_B_17] | 1 |
| GGCGUCGGGCGAAGGAGCGUGAAGACAUGAGGAUCACCCAUGUAGAGGCCCGGACAGGGUUCGCAGGUAGGUCGCGCGCGGUGCC [#1 Same State - Arginine B Attempt #7 (HarryS)] | 0.0169 |
| ACAUGAGGAUCACCCAUGUGUGUAAGUUCUCGAGGACCGGUACGGCCGCCACUCGAACGAGUGUAACGUUAUACUUAGUAUAAUG [SS Trp A s4] | 0.0114 |
| GUUGGUUUGCGAAGGAGCGGGUAUGUUUUCUACUGGAUCCUAACAUGAGGAUCACCCAUGUCCCAGGUAGGUCGCGCGGGCUUUG [12.aA] | 0.0458 |
| UUAAAUGUGACGGAUACCAGCGUGUUGUAGAACAUGAGGAUCACCCAUGUAGUGAUCAAGCGCCCUUGGCAGCUGGUAUGUUUGA [7.Z] | 0.124 |
| GAGUAGAGGACGGCCGCCACUGAACAUGAGGAUCACCCAUGUCGUGAUCCGUUGCCUGAAGAAGAUAGGACCGGGUCAUGUGCUC [Exclusion Tryptophan B GF 20] | 0.0255 |
| GGACGAAGUUUCUUGUCCGGUCGCUGAGAAGGAGCGCGGUAAACCGCAGGUAGGUCGCUCAGAAAUACAUGAGGAUCACCCAUGU [Orsosous] | 0.0215 |
| UGAUCCUGCAGGGAUACCAGCGCCGCUAGAUAACUAUGCACAUGAGGAUCACCCAUGUAACGCCCUUGGCAGCCCAGCUAAAGGG [Same State Theophylline B GF22] | 0.0481 |
| AACGUAUACAGAAGGAGCGUGAAAUAAGUAAAUUAAUAAUAAACAUGAGGAUCACCCAUGUCACAGGUAGGUCGCUGUAUUCGUA [JR_ExcArginiB_Sub017] | 0.0184 |
| AGUCUUAUAGGAAGGAGCGCAAUCAUCACAUGAGGAUCACCCAUGUCAAGGUGAGAGUCAUUGCAGGUAGGUCGCCUAACUAAGA [Same State - Arginine B (Freestyle 9)] | 0.213 |
| UGAACAUGAGGAUCACCCAUGUAGAGGGAAGGAGCGUCGAAGAAGACAGGUAGGUCGCCCAGAAAGAAAUCCUCAUGGAUAAGAA [Same State Arginine A GF2] | 0.069 |
| CCUUACGUUGGGCAGCCAGUUCGAAGUGAUACCAGUCACAAAAGUGACCCUUGGCAGCACCGCACAUGAGGAUCACCCAUGUCUA [SSThA NP+V+V2 #8 Same Structure] | 0.0628 |
| GCUUGGGUCGCAAGGCCCUGGCGUUGCGAUACCAGCACGGUAACGUGCCCUUGGCAGCGCACAUGAGGAUCACCCAUGUGGUGCG [#1 Exclusion - Theophylline A Attempt #22 (HarryS)] | 0.0174 |
| AGGGAAUGAAUAGAAUGAGAUGACACAGAAGGAGCGCCGAUUAAGGCAGGUAGGUCGCUGACAACAUGAGGAUCACCCAUGUUAA [#11 Same State - Arginine A] | 0.0206 |
| UCGCGAUAGAGAAGGAGCGUCAACACCACAGAACAUGAGGAUCACCCAUGUGUUACUUUUAGACAGGUAGGUCGCUCUAGCGCUU [JR_Nu_ExcArginiB_Sub028] | 0.0133 |
| AUCGUACCUGAUGAUACCAGCAUGUGAUCAUAACAUGAGGAUCACCCAUGUAAUCAGUGAUGCCCUUGGCAGCAUGAUCGGUACA [Same State - Theophylline B (Freestyle 13)] | 0.0567 |
| AUACAUGAGGAUCACCCAUGUCACACAGAAGGAGCGGCUGUAGAGCCAGGUAGGUCGCUGUACUCAAAAUACUUCAUACUCAUGU [JR_Nu_ExcArginiA_Sub033] | 0.0275 |
| AUAAGUAAGUUUUCGUGUUUUAUUACAGAUACCAGACUAUACGUUGUCCCUUGGCAGCUGGAUUACAUGAGGAUCACCCAUGUUG [#25 Exclusion-TheophyllineA] | 0.0239 |
| UUCGUUUGCGGAAGGAGCGACGGACAUCGGUGAACGACGCACAUGAGGAUCACCCAUGUACGUCAGGUAGGUCGCCGCUAAGAGU [Tibira] | 0.0198 |
| UGACAUUGCUCAGAUACCAGACAUGAGGAUCACCCAUGUACCAAGAGUACAAAUUAAAAUGUCCCUUGGCAGCUGAGCAAUGUCU [TheoBX 7 #MS2Left #Theo2] | 0.0193 |
| GUCAGUUCUCAUGAUACCAGACCUGCCUCGGACAUGAGGAUCACCCAUGUACCCAAGCGAGUCCCUUGGCAGCAUGUGGCUUAAA [Ririatre] | 0.0207 |
| UCACGACGCAACGUGAAAUAAUAAACAGAAGGAGCGAGGAAAGCCUCAGGUAGGUCGCUGACAUGAGGAUCACCCAUGUAUUACA [Same State Arginine A GF5] | 0.0322 |
| CUCUGAGUGAGCAAUCACUCAGAGGCGGAUACCAGCGAGGUCCAUCGCCCUUGGCAGCCGAACAUGAGGAUCACCCAUGUCGGUA [#1 Same State - Theophylline A Attempt #22 (HarryS)] | 0.011 |
| UUCUUUAAGUCGGCCGCCACUGAAACAUGAGGAUCACCCAUGUAUAUUUGUGUAUAGGUGGAUUACAGGACCGGGACUAUAGUAA [JR_ExcTryptoB_Sub023] | 0.0147 |
| AAAAUCCUACCUGAGGAUCACCCAGGUGAAGGAGCGCCCGAAAGGGCAGGUAGGUCGCACCUGAGGAUCACCCUGGUACCUAAAA [ArgAX 27 #DoubleMs2 #OpenEnded #AlternativeMS2] | 0.0631 |
| ACGACGCAUAGUGAUACCAGUAGAACAUGAGGAUCACCCAUGUCUGUGGCGCACCACCUCUGCCCUUGGCAGCACUAUGCGUCAG [SSTheo B #9] | 0.0141 |
